Reference: patent publication US20160017052A1 (Genentech, published 2016)

Tests used:
human factor D [1] = target: T1, human factor D (human, UniProt P00746 26-253); experiment: cell-based or functional assay
human factor D [2] = target: T1, human factor D; experiment: SPR, KD compared with AFD.v14
Experimental: The flow rate was 30 μL/min, the running buffer was HBS-P+, the temperature of analysis was 25° C., real-time reference cell subtraction was employed, and dissociation following factor D injection was followed for 10 minutes. After subtraction of the sensorgram observed for injection of running buffer, data were analyzed according to a 1:1 model using BiaEval software v4.1 (GE Healthcare) to extract the kinetics and affinity constants.

T1 sequence (P00746 26-253 limits assumed): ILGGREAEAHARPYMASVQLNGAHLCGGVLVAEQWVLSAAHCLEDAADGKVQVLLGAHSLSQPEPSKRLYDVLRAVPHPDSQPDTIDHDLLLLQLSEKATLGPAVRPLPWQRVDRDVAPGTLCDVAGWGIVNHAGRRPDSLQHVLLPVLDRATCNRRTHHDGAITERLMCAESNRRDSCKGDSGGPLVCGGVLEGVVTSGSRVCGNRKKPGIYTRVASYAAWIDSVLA

Binder | IC50 (nM) AP Hemolysis (human factor D [1]) [nM] | fold decrease in affinity for fD against SIESD.N103S (AFD.v14) (human factor D [2]) [fold]
AFD.v7 (TM.D92E; VL-D30E:D31S VH-D62E VL-D92E) (Fab, V domains shown) VH: EVQLVQSGPELKKPGASVKVSCKASGYTFTNYGMNWVRQAPGQGLEWMGWINTYTGETTYAEDFKGRFVFSLDTSVSTAYLQISSLKAEDTAVYYCEREGGVNNWGQGTLVTVSS VL: DIQVTQSPSSLSASVGDRVTITCITSTDIESDMNWYQQKPGKVPKLLISGGNTLRPGVPSRFSGSGSGTDFTLTISSLQPEDVATYYCLQSESLPYTFGQGTKVEIKR | 3.8 | 
AFD.v14 (SIESD.N103S; VL-D28S:D30E:D31S VH-D62E VH-N103S) (Fab, V domains shown) VH: EVQLVQSGPELKKPGASVKVSCKASGYTFTNYGMNWVRQAPGQGLEWMGWINTYTGETTYAEDFKGRFVFSLDTSVSTAYLQISSLKAEDTAVYYCEREGGVSNWGQGTLVTVSS VL: DIQVTQSPSSLSASVGDRVTITCITSTSIESDMNWYQQKPGKVPKLLISGGNTLRPGVPSRFSGSGSGTDFTLTISSLQPEDVATYYCLQSDSLPYTFGQGTKVEIKR | 4.1 | 
AFD.v8 (SIESD; VL-D28S:D30E:D31S VH-D62E) (Fab, V domains shown) VH: EVQLVQSGPELKKPGASVKVSCKASGYTFTNYGMNWVRQAPGQGLEWMGWINTYTGETTYAEDFKGRFVFSLDTSVSTAYLQISSLKAEDTAVYYCEREGGVNNWGQGTLVTVSS VL: DIQVTQSPSSLSASVGDRVTITCITSTSIESDMNWYQQKPGKVPKLLISGGNTLRPGVPSRFSGSGSGTDFTLTISSLQPEDVATYYCLQSDSLPYTFGQGTKVEIKR | 4.2 | 
AFD.v15 (SIESD.N103S.D92E; VL-D28S:D30E:D31S:D92E VH-D62E:N103S) (Fab, V domains shown, Fab variant) VH: EVQLVQSGPELKKPGASVKVSCKASGYTFTNYGMNWVRQAPGQGLEWMGWINTYTGETTYAEDFKGRFVFSLDTSVSTAYLQISSLKAEDTAVYYCEREGGVSNWGQGTLVTVSS VL: DIQVTQSPSSLSASVGDRVTITCITSTSIESDMNWYQQKPGKVPKLLISGGNTLRPGVPSRFSGSGSGTDFTLTISSLQPEDVATYYCLQSESLPYTFGQGTKVEIKR |  | 4
